This passage reports binding signal (% cells retained) results from PMC12806343.

Data set [1] concerns the target membrane-bound PD-L1 on MDA-MB-231 cells (Homo sapiens?) (UniProt Q9NZQ7). In words: cell retention assay. The following applies: aptamer on slide, 5' amine (NH2), BLI: 1x PBS pH 7.4, aptamers 3-12 uM, 300 s association, 600 s dissociation, temperature not stated, EMSA: TBE-PAGE, binding buffer composition not given.
Data set [2] has as its target membrane-bound PD-L1 on MDA-MB-231 cells, PNGase F treated (UniProt Q9NZQ7). As to the kind of experiment: cell retention assay. As to conditions: 5' amine (NH2), BLI: 1x PBS pH 7.4, aptamers 3-12 uM, 300 s association, 600 s dissociation, temperature not stated, EMSA: TBE-PAGE, binding buffer composition not given.

membrane-bound PD-L1 on MDA-MB-231 cells (Homo sapiens?), sequence (Q9NZQ7 19-290): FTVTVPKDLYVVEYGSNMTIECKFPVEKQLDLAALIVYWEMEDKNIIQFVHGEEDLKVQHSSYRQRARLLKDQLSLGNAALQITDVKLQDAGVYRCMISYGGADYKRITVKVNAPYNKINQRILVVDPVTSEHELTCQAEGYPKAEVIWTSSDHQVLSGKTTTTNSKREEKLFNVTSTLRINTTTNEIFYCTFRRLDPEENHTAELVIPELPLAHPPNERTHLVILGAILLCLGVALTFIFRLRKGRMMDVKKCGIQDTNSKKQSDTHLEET
membrane-bound PD-L1 on MDA-MB-231 cells, PNGase F treated, sequence (Q9NZQ7 19-290): as above

Regarding “ATAGTCCCTGGCGTGCTTGGTCGGCAGAGCAGGTACGGTGTCA [Apt45]”, the binding signal (% cells retained) turned out to be 5.9 in data set [1] (negligible adhesion) and 46 in data set [2].

In data set [1], “GTACCTGCTCTCCGCGCGAAGCACGCCAGGGACT [Tr-Apt13]” displayed a binding signal (% cells retained) of 86.8.

As for “TGACACCGTACCTGCTCTCCGCGCGAAGCACGCCAGGGACTAT [Apt13]”, the binding signal (% cells retained) worked out at 72.9 in data set [1] (comparison with Apt45) and 62.8 in data set [1] (comparison with Tr-Apt13).
